The text below walks through data of PMC8749442 (iScience, 2021).

The series “cryo-EM structure” concerns the molecule itself. The experiment in a line: cryo-EM structure.
Series [1] addresses GroEL (wild-type bacterial chaperonin) (UniProt P0A6F5 1-548). Briefly: cryo-EM structure.

Sequence of GroEL (wild-type bacterial chaperonin) (P0A6F5 whole entry): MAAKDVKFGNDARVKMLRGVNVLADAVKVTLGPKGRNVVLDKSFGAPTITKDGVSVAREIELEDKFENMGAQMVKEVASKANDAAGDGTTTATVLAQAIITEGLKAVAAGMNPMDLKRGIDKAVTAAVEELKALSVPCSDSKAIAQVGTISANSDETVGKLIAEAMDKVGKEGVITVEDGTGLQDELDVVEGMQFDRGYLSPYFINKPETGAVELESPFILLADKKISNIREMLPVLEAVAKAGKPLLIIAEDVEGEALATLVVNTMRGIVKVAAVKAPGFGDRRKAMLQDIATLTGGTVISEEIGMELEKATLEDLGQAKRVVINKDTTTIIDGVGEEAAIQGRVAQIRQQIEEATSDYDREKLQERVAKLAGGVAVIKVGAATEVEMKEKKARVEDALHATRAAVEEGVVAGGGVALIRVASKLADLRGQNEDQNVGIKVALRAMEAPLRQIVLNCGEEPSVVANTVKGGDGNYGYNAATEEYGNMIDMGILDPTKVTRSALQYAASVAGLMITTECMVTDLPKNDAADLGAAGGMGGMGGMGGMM

B1: GroES (co-chaperone of GroEL) (natural protein)
chain: MNIRPLHDRVIVKRKEVETKSAGGIVLTGSAAAKSTRGEVLAVGNGRILENGEVKPLDVKVGDIVIFNDGYGVKSEKIDNEEVLIMSESDILAIVEA
Consider B1, for which the binding result (in the series “cryo-EM structure”; in series [1]) was “binds” in each case.
